According to patent publication US20250002577A1 (ONCORESPONSE, published 2025):

Columns and labels:
[1] = target: T1, human LILRB1 on cells (human, UniProt Q8NHL6 24-650); test: flow cytometry, AF647-labelled antibody at 10 µg/mL on human PBMC, gate: CD56dim CD16+ NK cells (LILRB1-expressing subset per paragraph 345)
T1 construct: whole, on cells; also called hLILRB1; LILRB1-expressing 721.221 cells
Procedure: To further characterize the binding of LILRB2/1 antibodies to LILRB1 expressing immune cell subsets (namely, B, T, and NK cells), binding assays were performed with primary human PBMCs. Single cell suspensions of peripheral blood mononuclear cells (PBMCs) from healthy donors were seeded at 0.5 million per well in 96-well plates (Thermo Fisher, No. 249946). PBMCs were blocked with 0.5 mg/mL of human IgG1 myeloma plasma (Athens Research, No. 16-16-090707-1M) in FACS Buffer (PBS containing 2% FBS, 2 mM EDTA and 0.05% NaN₃) for 45 min to 1 h at 4° C. The immune cell phenotyping antibodies and indicated AlexaFluor647-labeled test antibodies were then added to the cells and incubated for 45 min to 1 h at 4° C.
Cells were washed 1× with PBS and stained with the Zombie Violet™ fixable viability dye for 15 min at RT for live cell discrimination. Cells were washed 1× with FACS Buffer, fixed, and acquired on a FACS Symphony cytometer (BD Biosciences). Data analysis was performed using the FlowJo software (v10.8.1). […]

[2] = target: T2, human LILRB2 on cells (human, UniProt Q8N423 22-597); test: flow cytometry, AF647-labelled antibody on HEK293T cells stably expressing human LILRB2
T2 construct: whole, on cells; also called hLILRB2; LILRB2-HEK293T
Procedure: (§1) While LILRB2 expression is mostly restricted to myeloid cells, LILRB1 has a broader expression on immune cell subsets, including B cells, T cells and NK cells.
(§2) Frozen cells were removed from storage in vapor phase liquid nitrogen and thawed by gentle swirling in a water bath at 37° C., then resuspended in DMEM media with 10% FBS. Cells were placed in a 15 mL conical tube and centrifuged at 300×g for 5 min, then supernatant was removed. Cells were resuspended in DMEM+10% FBS at a cell density of 2×10⁵ cells/mL in a T75 flask for culturing, and incubated at 37° C., 5% CO₂ for 3 days before passaging. Cells were passaged when the cell density reached 1×10⁶ cell/mL. On the day of the assay, cells were centrifuged, then supernatant was removed. Cells were resuspended in Blocking Buffer B (FACS Buffer containing 10% FBS and 0.5 mg/mL human IgG1 (Athens Research, No. 16-16-090707-1M)+0.05% NaN₃, 5% (w/v)) in a 15 mL conical tube, then incubated at 4° C. for 30 min. […] Cells were incubated with antibodies at 4° C. for 1 h. Cells were washed twice in FACS Buffer (PBS containing 2 mM EDTA+1% FBS+0.05% NaN₃) and then stained with for 10 min with Zombie Violet™ fixable viability dye (BioLegend, No. 423114) at RT, washed with FACS Buffer and resuspend in 75 μL of FACS Buffer for acquisition on a BD FACSymphony™ or BD FACSCanto™ II flow cytometer (BD Biosciences), as described in Example 6.

[3] = target: T2, human LILRB2 on cells; test: flow cytometry, LILRB2-HEK293T cells, AF647-labelled antibody
Summary of the method: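 Cells were blocked 30 min at 4° C in FACS buffer with 10% FBS and 0.5 mg/mL human IgG1. AF647-labelled antibodies were then bound for 1 h at 4° C. After Zombie Violet viability staining, binding was read by flow cytometry.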

[4] = target: T1, human LILRB1 on cells; test: flow cytometry, HEK293-6E transfectants
Summary of the method: (§3)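 Antibody binding measured by flow cytometry on HEK293-6E cells transiently transfected with individual human LILRB (1–5) or LILRA (1, 2, 4, 5, 6) plasmids. Antibodies tested at 1 μg/mL.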

[5] = target: T3, human LILRA2 on HEK293-6E cells (human, UniProt Q8N149 24-483); test: flow cytometry, HEK293-6E transfectants
T3 construct: whole, on cells; also called hLILRA2
Summary of the method: as §3

[6] = target: T4, human LILRA4 on HEK293-6E cells (human, UniProt P59901 24-499); test: flow cytometry, HEK293-6E transfectants
T4 construct: whole, on cells; also called hLILRA4
Summary of the method: as §3

[7] = target: T5, human LILRA5 on HEK293-6E cells (human, UniProt A6NI73 42-299); test: flow cytometry, HEK293-6E transfectants
T5 construct: whole, on cells; also called hLILRA5
Summary of the method: as §3

[8] = target: T6, human LILRB4 on HEK293-6E cells (human, UniProt Q8NHJ6 22-448); test: flow cytometry, HEK293-6E transfectants
T6 construct: whole, on cells; also called hLILRB4
Summary of the method: as §3

[9] = target: T7, human LILRB3 on HEK293-6E cells (human, UniProt O75022 24-631); test: flow cytometry, HEK293-6E transfectants
T7 construct: whole, on cells; also called hLILRB3
Summary of the method: as §3

[10] = target: T2, human LILRB2 on cells; test: flow cytometry, HEK293-6E transfectants
Summary of the method: as §3

[11] = target: T8, human LILRB5 on HEK293-6E cells (human, UniProt O75023 24-590); test: flow cytometry, HEK293-6E transfectants
T8 construct: whole, on cells; also called hLILRB5
Summary of the method: as §3

[12] = target: T9, human LILRA6 on HEK293-6E cells (human, UniProt Q6PI73 24-481); test: flow cytometry, HEK293-6E transfectants
T9 construct: whole, on cells; also called hLILRA6
Summary of the method: as §3

[13] = target: T10, human LILRA1 on HEK293-6E cells (human, UniProt O75019 17-489); test: flow cytometry, HEK293-6E transfectants
T10 construct: whole, on cells; also called hLILRA1
Summary of the method: as §3

[14] = target: T1, human LILRB1 on cells; test: flow cytometry, 721.221 cells, AF647-labelled antibody
Procedure: as §1, §2

[15] = target: T11, recombinant cynomolgus LILRB1 (cynomolgus); test: MSD ELISA, coated antigen, purified IgG1
T11 construct: Bought protein

[16] = target: T12, recombinant human LILRB1-His (human, UniProt Q8NHL6 24-458); test: MSD ELISA, coated antigen, purified IgG1
T12 construct: Bought protein; also called LILRB1 protein

[17] = target: T13, recombinant human LILRB2-His (human, UniProt Q8N423 22-461, limits assumed); test: MSD ELISA, coated antigen, purified IgG1
T13 construct: Bought protein; also called LILRB2 protein
T13 sequence (Q8N423 22-461 limits assumed): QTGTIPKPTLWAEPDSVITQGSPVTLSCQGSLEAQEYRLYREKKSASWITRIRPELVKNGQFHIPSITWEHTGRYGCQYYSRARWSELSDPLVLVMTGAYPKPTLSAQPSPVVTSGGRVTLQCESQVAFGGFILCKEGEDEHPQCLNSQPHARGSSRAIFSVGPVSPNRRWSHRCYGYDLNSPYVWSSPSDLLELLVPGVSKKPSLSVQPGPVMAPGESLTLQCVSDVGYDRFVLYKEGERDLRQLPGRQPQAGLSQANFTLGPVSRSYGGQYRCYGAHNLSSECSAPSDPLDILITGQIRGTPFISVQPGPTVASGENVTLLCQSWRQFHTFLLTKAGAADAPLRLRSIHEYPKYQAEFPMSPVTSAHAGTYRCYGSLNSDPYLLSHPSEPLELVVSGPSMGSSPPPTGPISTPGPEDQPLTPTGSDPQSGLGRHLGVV

T2 sequence (Q8N423 22-597): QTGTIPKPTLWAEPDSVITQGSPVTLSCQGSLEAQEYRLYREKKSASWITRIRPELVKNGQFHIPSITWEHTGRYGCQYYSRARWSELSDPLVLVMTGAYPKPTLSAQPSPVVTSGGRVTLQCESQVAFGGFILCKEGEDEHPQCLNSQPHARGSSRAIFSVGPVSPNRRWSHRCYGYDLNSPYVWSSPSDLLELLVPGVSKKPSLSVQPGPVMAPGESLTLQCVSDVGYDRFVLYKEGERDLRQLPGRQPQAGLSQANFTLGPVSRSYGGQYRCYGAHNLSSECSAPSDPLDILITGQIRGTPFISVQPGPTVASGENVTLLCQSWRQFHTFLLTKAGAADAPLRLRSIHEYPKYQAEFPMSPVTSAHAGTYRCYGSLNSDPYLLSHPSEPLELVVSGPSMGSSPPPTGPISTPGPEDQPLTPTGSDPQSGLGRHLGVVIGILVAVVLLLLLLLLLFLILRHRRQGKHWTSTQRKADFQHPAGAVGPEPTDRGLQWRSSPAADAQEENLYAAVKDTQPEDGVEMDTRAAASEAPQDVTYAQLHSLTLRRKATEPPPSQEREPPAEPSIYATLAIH
T1 sequence (Q8NHL6 24-650): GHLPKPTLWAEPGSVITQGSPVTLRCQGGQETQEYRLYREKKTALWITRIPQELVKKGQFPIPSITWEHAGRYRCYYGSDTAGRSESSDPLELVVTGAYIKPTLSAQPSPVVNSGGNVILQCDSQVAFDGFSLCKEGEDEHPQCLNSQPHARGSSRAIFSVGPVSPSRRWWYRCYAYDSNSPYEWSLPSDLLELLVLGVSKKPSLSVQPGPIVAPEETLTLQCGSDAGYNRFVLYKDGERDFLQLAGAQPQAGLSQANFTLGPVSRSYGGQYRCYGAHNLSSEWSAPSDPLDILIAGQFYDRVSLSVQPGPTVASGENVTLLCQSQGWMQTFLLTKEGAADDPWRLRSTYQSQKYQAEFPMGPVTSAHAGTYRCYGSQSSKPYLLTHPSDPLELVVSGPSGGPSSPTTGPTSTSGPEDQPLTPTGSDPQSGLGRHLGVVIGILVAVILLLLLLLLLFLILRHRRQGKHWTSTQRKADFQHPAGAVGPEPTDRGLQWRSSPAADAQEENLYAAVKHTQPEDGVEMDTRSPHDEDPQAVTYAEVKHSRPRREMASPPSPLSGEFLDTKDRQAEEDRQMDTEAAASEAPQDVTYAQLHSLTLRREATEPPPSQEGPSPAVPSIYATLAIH
T10 sequence (O75019 17-489): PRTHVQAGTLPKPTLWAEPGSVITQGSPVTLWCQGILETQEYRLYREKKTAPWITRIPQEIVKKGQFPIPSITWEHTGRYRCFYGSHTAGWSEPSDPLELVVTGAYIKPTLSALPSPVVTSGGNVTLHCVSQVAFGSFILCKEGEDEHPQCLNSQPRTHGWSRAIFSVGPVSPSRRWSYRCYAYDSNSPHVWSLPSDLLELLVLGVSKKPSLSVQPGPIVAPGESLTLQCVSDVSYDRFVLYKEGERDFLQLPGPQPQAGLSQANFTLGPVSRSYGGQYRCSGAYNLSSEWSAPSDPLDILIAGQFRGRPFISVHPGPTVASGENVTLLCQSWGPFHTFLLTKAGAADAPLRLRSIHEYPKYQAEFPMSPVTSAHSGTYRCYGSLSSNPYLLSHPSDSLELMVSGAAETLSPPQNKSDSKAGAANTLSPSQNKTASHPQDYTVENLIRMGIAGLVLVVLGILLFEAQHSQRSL
T8 sequence (O75023 24-590): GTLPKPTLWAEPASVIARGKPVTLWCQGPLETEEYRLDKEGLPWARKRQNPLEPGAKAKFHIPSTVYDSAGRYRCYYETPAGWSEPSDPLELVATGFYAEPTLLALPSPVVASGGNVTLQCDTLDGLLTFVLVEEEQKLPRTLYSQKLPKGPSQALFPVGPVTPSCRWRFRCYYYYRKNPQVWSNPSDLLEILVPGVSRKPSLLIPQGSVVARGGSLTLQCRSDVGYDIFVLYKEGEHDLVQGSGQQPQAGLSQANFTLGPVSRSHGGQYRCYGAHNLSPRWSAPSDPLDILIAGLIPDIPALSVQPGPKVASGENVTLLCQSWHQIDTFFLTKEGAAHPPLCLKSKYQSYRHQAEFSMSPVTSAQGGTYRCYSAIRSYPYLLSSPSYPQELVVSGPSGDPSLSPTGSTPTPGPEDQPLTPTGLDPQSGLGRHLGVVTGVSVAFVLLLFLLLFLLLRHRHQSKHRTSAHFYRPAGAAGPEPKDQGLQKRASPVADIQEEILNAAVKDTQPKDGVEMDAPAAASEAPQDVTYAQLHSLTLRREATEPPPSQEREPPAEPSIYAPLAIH
T7 sequence (O75022 24-631): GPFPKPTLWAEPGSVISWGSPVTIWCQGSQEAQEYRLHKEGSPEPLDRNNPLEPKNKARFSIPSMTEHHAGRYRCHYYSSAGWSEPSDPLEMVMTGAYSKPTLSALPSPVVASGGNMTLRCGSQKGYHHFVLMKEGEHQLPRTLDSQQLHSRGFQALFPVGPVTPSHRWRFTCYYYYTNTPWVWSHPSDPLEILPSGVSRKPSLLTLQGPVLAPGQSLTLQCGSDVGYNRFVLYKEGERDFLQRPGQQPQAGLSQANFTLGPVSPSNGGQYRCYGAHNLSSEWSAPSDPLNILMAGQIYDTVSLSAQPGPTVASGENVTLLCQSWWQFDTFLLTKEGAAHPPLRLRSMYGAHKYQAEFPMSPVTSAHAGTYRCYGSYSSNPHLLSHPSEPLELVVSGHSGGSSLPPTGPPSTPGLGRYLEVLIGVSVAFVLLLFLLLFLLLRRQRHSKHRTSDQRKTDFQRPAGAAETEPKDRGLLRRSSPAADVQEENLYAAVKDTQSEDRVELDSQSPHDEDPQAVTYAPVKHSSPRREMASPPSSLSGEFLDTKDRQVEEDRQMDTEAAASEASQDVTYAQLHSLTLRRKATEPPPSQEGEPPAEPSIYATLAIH
T3 sequence (Q8N149 24-483): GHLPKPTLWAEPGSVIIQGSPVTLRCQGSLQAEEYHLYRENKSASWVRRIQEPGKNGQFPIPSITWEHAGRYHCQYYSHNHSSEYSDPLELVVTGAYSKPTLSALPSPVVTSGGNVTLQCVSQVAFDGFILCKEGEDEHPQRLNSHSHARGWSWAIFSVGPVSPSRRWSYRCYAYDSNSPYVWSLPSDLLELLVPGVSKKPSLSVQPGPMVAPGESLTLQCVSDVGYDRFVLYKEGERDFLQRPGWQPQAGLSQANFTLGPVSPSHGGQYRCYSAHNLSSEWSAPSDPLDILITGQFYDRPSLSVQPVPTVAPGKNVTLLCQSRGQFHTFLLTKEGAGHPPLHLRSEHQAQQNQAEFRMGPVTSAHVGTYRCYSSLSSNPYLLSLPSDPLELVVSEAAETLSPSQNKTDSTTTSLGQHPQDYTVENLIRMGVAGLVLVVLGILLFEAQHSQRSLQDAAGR
T9 sequence (Q6PI73 24-481): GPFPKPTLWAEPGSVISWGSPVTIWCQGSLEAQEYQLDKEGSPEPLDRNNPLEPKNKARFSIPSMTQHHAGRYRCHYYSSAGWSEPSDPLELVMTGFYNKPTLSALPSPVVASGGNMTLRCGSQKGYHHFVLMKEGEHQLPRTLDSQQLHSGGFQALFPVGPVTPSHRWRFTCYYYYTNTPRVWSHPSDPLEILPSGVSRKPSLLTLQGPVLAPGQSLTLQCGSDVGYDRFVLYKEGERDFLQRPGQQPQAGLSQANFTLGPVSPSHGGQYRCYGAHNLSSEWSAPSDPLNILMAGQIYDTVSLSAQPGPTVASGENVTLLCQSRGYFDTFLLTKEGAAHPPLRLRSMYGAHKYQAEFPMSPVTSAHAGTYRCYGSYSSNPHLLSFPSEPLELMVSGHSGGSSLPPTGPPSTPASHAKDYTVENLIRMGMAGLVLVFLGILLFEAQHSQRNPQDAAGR
T12 sequence (Q8NHL6 24-458 limits assumed): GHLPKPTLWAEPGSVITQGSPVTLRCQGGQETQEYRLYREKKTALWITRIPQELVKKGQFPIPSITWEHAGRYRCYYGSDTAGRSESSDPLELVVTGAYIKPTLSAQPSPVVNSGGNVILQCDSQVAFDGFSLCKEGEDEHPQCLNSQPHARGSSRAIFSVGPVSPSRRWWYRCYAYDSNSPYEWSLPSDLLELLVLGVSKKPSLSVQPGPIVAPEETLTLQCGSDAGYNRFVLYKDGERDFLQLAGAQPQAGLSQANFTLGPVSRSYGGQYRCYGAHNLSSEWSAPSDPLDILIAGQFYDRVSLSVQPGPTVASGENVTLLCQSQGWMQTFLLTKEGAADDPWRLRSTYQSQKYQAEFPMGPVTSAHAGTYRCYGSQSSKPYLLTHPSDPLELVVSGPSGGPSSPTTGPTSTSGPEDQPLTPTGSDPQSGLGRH
T5 sequence (A6NI73 42-299): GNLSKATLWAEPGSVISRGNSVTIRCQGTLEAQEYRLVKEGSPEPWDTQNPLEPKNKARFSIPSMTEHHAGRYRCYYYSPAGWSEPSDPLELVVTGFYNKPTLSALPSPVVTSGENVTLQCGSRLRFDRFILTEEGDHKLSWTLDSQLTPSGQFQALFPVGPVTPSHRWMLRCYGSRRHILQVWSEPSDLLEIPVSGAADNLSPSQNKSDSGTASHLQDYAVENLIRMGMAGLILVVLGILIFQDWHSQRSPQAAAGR

Row | Binder | EC50 [3] [µg/mL] | MFI [4] [MFI] | MFI [5] [MFI] | binding result [5] | MFI [6] [MFI] | binding result [6] | MFI [7] [MFI] | binding result [7] | MFI [8] [MFI] | binding result [8] | MFI [9] [MFI] | binding result [9] | MFI [10] [MFI] | MFI [11] [MFI] | binding result [11] | MFI [12] [MFI] | binding result [12] | MFI [13] [MFI] | binding result [13] | EC50 [14] [µg/mL] | other results
1 | Comp 3 (antibody, human IgG1, kappa, N297G, V domains shown, The text says 'a LILRB2/1 antibody (Comp 3); also called comparator LILRB2/1 antibody) VH: QVQLVQSGAEVKKPGASVKVSCKASGYTFTDYYINWVRQAPGQGLEWMGNVNPNDGGTTYNQKFKGRVTMTTDTSTSTAYMELRSLRSDDTAVYYCARREIYFYGTIYYYAMDYWGQGTLVTVSS VL: DIQLTQSPSFLSASVGDRVTITCRASESVDYYGNSFMYWYQQKPGKAPKLLIYFASNLESGVPSRFSGSGSGTEFTLTISSLQPEDFATYYCQQNNEDPWTFGGGTKVEIKR | – | – | – | – | – | – | – | – | – | – | – | – | – | – | – | – | – | – | – | – | binding result [1]: binds
2 | Comp 1 (anti-LILRB1 antibody) (antibody, human IgG1, kappa, V domains shown) VH: QVQLKESGPGLVAPSQSLSITCTVSGFSLTNYGVSWVRQPPGKGLEWLGIIWGDGSTNYHSALISRLSISKDNSKSQVFLKLNSLQADDTATYYCAKPNWDTYAMDFWGQGTSVTVSS VL: DIQMTQTTSSLSASLGDRVTISCRASQDISNFLNWYQQKPDGTVKLLIYCTSKLHSGVPSRFSGSGSETDYSLTISNLEQEDIATYFCQQGNTLPPTFGGGTKLEIIR | – | – | – | – | – | – | – | – | – | – | – | – | – | – | – | – | – | – | – | – | binding result [1]: binds
3 | Comp 2 (anti-LILRB2 antibody) (antibody, human IgG1, kappa, V domains shown) VH: QIQLVQSGPELKKPGETVKISCKASGYTFTNYGMNWVKQAPGKGLKWMGWINTYIGEPIYADDFKGRFAFSLETSASTAYLQINNLKNEDMATYFCARRSDYDGYAMDYWGQGTSVTVSS VL: DIVMSQSPSSLAVSVGERVTMSCKSSQSLLYSGNQKNYLAWYQQKPGQSPKLLIYWASTRESGVPDRFTGSGSGTDFTLTISSVKAEDLAVYYCQQHDSYPTFGGGSRLEIKR | – | – | – | – | – | – | – | – | – | – | – | – | – | – | – | – | – | – | – | – | EC50 (read off the curve) [2]: ~0.6 nM
4 | B21H1-32 (antibody, human IgG1, kappa, humanized IgG1/kappa, VH3+VL2) heavy: not shown light: DIQMTQSPSSLSASVGDRVTITCQASGNIYSFLAWYQQKPGKVPKLLIYTASNLETGVPSRFSGSGSGTDYTLTISSLQSEDAATYYCLGGLYSSDVSYAFGGGTKVVIKRTVAAPSVFIFPPSDEQLKSGTASVVCLLNNFYPREAKVQWKVDNALQSGNSQESVTEQDSKDSTYSLSSTLTLSKADYEKHKVYACEVTHQGLSSPVTKSFNRGEC | 0.00123 | 1040 | 27.8 | no binding (tested: 1 µg/mL) | 126 | no binding (tested: 1 µg/mL) | 74 | no binding (tested: 1 µg/mL) | 28.8 | no binding (tested: 1 µg/mL) | 99.2 | no binding (tested: 1 µg/mL) | 5460 | 87.9 | no binding (tested: 1 µg/mL) | 142 | no binding (tested: 1 µg/mL) | 249 | no binding (tested: 1 µg/mL) | 0.0518 | EC50 [15]: 0.272 µg/mL; EC50 [16]: 0.00646 µg/mL; EC50 [17]: 0.0219 µg/mL
5 | B21H1-55 (antibody, human IgG1, kappa, humanized IgG1/kappa, VH5+VL5) heavy: not shown light: DIQMTQTPSTVEASVGGTVTITCQASGNIYSFLAWYQQKPGQPPKLLIYTASNLETGVPSRFSGSGSGTEYTLTISGLQSDDAATYYCLGGLYSSDVSYAFGGGTEVVVKRTVAAPSVFIFPPSDEQLKSGTASVVCLLNNFYPREAKVQWKVDNALQSGNSQESVTEQDSKDSTYSLSSTLTLSKADYEKHKVYACEVTHQGLSSPVTKSFNRGEC | 0.00071 | 1030 | 27.9 | no binding (tested: 1 µg/mL) | 144 | no binding (tested: 1 µg/mL) | 77.4 | no binding (tested: 1 µg/mL) | 33.5 | no binding (tested: 1 µg/mL) | 108 | no binding (tested: 1 µg/mL) | 4120 | 94.8 | no binding (tested: 1 µg/mL) | 148 | no binding (tested: 1 µg/mL) | 332 | no binding (tested: 1 µg/mL) | 0.0507 | EC50 [15]: 0.25 µg/mL; EC50 [16]: 0.00944 µg/mL; EC50 [17]: 0.0369 µg/mL
6 | B21H1-14 (antibody, human IgG1, kappa, humanized IgG1/kappa, VH1+VL4) heavy: not shown light: DVVMTQSPSTVSASVGDRVTLTCQASGNIYSFLAWYQQKPGQPPKLLIYTASNLETGVPDRFSGSGSGTDYTLTISSLQADDFATYYCLGGLYSSDVSYAFGQGTKVEIKRTVAAPSVFIFPPSDEQLKSGTASVVCLLNNFYPREAKVQWKVDNALQSGNSQESVTEQDSKDSTYSLSSTLTLSKADYEKHKVYACEVTHQGLSSPVTKSFNRGEC | 0.0011 | 988 | 28.6 | no binding (tested: 1 µg/mL) | 140 | no binding (tested: 1 µg/mL) | 78.3 | no binding (tested: 1 µg/mL) | 33.5 | no binding (tested: 1 µg/mL) | 104 | no binding (tested: 1 µg/mL) | 5760 | 93.3 | no binding (tested: 1 µg/mL) | 151 | no binding (tested: 1 µg/mL) | 249 | no binding (tested: 1 µg/mL) | 0.0552 | EC50 [15]: 0.45 µg/mL; EC50 [16]: 0.00593 µg/mL; EC50 [17]: 0.0187 µg/mL
